Reference: article PMC1483224

T1: MutS (Escherichia coli, UniProt P23909 1-853)
T1 sequence: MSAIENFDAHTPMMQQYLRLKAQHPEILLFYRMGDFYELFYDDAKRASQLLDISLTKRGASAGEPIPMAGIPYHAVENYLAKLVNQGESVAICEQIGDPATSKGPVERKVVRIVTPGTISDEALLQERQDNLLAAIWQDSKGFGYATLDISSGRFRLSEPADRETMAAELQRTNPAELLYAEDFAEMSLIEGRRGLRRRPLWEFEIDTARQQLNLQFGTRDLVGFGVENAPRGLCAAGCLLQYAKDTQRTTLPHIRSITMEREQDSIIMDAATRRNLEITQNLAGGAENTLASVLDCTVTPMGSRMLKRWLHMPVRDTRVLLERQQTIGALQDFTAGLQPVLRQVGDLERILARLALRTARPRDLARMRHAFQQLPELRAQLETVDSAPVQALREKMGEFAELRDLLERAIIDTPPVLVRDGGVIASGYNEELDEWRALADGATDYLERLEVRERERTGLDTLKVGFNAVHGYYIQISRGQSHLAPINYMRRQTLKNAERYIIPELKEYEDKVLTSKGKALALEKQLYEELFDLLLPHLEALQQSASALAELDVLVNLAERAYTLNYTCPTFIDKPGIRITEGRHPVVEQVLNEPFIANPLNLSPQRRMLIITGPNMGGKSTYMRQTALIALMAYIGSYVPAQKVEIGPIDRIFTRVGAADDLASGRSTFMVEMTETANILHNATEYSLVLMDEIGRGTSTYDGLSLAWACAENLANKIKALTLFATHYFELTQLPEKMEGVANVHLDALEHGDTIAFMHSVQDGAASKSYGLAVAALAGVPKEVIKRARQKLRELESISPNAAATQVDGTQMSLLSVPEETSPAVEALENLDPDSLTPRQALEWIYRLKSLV

B1: CT heteroduplex (dsDNA)
DNA 1: GACGAGCCGCCCGCTAGCGTCG
DNA 2: CGACGCTAGCGTGCGGCTCGTC
B2: GT heteroduplex (dsDNA)
DNA 1: GACGAGCCGCGCGCTAGCGTCG
DNA 2: CGACGCTAGCGTGCGGCTCGTC
B3: CC heteroduplex (dsDNA)
DNA 1: GACGAGCCGCCCGCTAGCGTCG
DNA 2: CGACGCTAGCGCGCGGCTCGTC

molecular target: T1, MutS; experiment: impedance spectroscopy, CV

Which binding signal does the source give for B1 here?
Its binding signal is 1680 Ohm/cm (Rct calibration slope as printed).

For B2, which binding signal is on record?
Its binding signal is 3380 Ohm/cm (Rct calibration slope as printed).

For B3, which binding signal is on record?
Its binding signal is 1050 Ohm/cm (Rct calibration slope as printed).
